Assay results as given in paper PMC8858909 (Advances in biological regulation, 2021).
One block for each binder: values may come before it.

What was measured:
[1] = biological target: untagged full-length SNX27 (human, UniProt Q96L92 1-541); test: ITC
[2] = biological target: untagged SNX27 FERM domain (human, UniProt Q96L92 273-525); test: ITC
[3] = biological target: 6xHis-tagged full-length SNX27 (human, UniProt Q96L92 1-541); test: pull-down

fold weaker than the SNX1 N-terminus [1]: ~2 fold
fold weaker than the SNX1 N-terminus [2]: ~2 fold
B1: SNX1 peptide with the first DxF motif (residues 40-50, DIF) (peptide)
peptide: DTEGEDIFTGA

binding result [3]: binds
B2: GST-SNX2_N-terminal (1-139) (domain or fragment, human, UniProt O60749 1-139, looked up)
chain: MAAEREPPPLGDGKPTDFEDLEDGEDLFTSTVSTLESSPSSPEPASLPAEDISANSNGPKPTEVVLDDDREDLFAEATEEVSLDSPEREPILSSEPSPAVTPVTPTTLIAPRIESKSMSAPVIFDRSREEIEEEANGDI

binding result [3]: binds
B3: GST-SNX1 residues 40-80 (domain or fragment, human, UniProt Q13596 40-80, looked up)
chain: DTEGEDIFTGAAVVSKHQSPKITTSLLPINNGSKENGIHEE

binding result [3]: binds
B4: GST-SNX1 residues 1-70 (domain or fragment, human, UniProt Q13596 1-70, looked up)
chain: MASGGGGCSASERLPPPFPGLEPESEGAAGGSEPEAGDSDTEGEDIFTGAAVVSKHQSPKITTSLLPINN

Kd [1]: 10 to 12 µM
Kd [2]: 12 µM
B5: GST-SNX1 (residues 1-142) (domain or fragment, human, UniProt Q13596 1-142, looked up)
chain: MASGGGGCSASERLPPPFPGLEPESEGAAGGSEPEAGDSDTEGEDIFTGAAVVSKHQSPKITTSLLPINNGSKENGIHEEQDQEPQDLFADATVELSLDSTQNNQKKVLAKTLISLPPQEATNSSKPQPTYEELEEEEQEDQ

binding result [3]: binds
B6: GST-SNX1 (residues 40-100) (domain or fragment, human, UniProt Q13596 40-100, looked up)
chain: DTEGEDIFTGAAVVSKHQSPKITTSLLPINNGSKENGIHEEQDQEPQDLFADATVELSLDS

binding result [3]: binds
B7: GST-SNX1 residues 40-70 (domain or fragment, human, UniProt Q13596 40-70, looked up)
chain: DTEGEDIFTGAAVVSKHQSPKITTSLLPINN

binding result [3]: binds
B8: GST-SNX1 (residues 1-90) (domain or fragment, human, UniProt Q13596 1-90, looked up)
chain: MASGGGGCSASERLPPPFPGLEPESEGAAGGSEPEAGDSDTEGEDIFTGAAVVSKHQSPKITTSLLPINNGSKENGIHEEQDQEPQDLFA

binding result [3]: binds
B9: GST-SNX1 (residues 40-90) (domain or fragment, human, UniProt Q13596 40-90, looked up)
chain: DTEGEDIFTGAAVVSKHQSPKITTSLLPINNGSKENGIHEEQDQEPQDLFA

binding result [3]: binds
B10: GST-SNX1 residues 1-60 (domain or fragment, human, UniProt Q13596 1-60, looked up)
chain: MASGGGGCSASERLPPPFPGLEPESEGAAGGSEPEAGDSDTEGEDIFTGAAVVSKHQSPK

binding result [1]: binds
binding result [2]: binds
B11: SNX1 peptide with the second DxF motif (residues 80-90, DLF) (peptide)
peptide: EQDQEPQDLFA

binding result [3]: binds
B12: GST-SNX1 residues 1-80 (domain or fragment, human, UniProt Q13596 1-80, looked up)
chain: MASGGGGCSASERLPPPFPGLEPESEGAAGGSEPEAGDSDTEGEDIFTGAAVVSKHQSPKITTSLLPINNGSKENGIHEE

binding result [3]: binds
B13: GST-SNX1 residues 40-60 (domain or fragment, human, UniProt Q13596 40-60, looked up)
chain: DTEGEDIFTGAAVVSKHQSPK
